The source of these data is paper PMC9224512, “New Insights into the Determinants of Specificity in Human Type I Arginase: Generation of a Mutant That Is Only Active with Agmatine as Substrate” (International Journal of Molecular Sciences, 2022).

Positions count from the first letter of the chain named. Names and notes keep the numbering of the source.

Substrate in data set [1]: N=C(N)NCCCCN
The data set is described as follows: Kinetic and inhibition studies, S137C-N139D mutant. As to conditions: other: substrate = labelled compound, pH 9.5, 2 mM Mn2+. In kind it is biochemical, human.
Description: (§1) All assays were initiated by adding the enzyme to a previously equilibrated buffer with the substrate in solution (the concentrations of used substrates were between 0.2–3 fold the Km). Urea was determined by a colorimetric method with α-isonitrosopropiophenone [38]. […] Initial velocity and enzymatic inhibition experiments were performed in duplicate and repeated three times. The inhibitory patterns were initially determined by double reciprocal plots and re-plots of intercepts and slopes versus inhibitor concentrations. […] Velocities are expressed as μmol of urea/10 min.

Substrate in data set [2]: N=C(N)NCCCCN
The data set is described as follows: Kinetic and inhibition studies, N130D mutant. Format: biochemical, human. As to conditions: other: substrate = labelled compound, pH 9.5, 2 mM Mn2+.
Description: (§2) Bacterial cultures were grown with shaking at 37 °C in Luria Broth media, in the presence of ampicillin (100 μg/mL). The wild-type and mutant human liver arginase cDNAs were directionally cloned into the pBluescript II KS(+) expression vector and then expressed in E. coli JM109, following induction with 1 mM isopropyl β-D-thiogalactopyranoside. The bacterial cells were disrupted by sonication on ice (5 × 30 s pulses), centrifuged for 20 min at 12,000× g, and the obtained supernatant was precipitated with ammonium sulfate (60% saturation). The pellet, collected by centrifugation at 12,000× g for 10 min, was re-suspended in buffer 5 mM Tris–HCl (pH 7.5) containing 2 mM MnCl2 and dialyzed for 6 h at 4 °C against the same buffer. After incubation with 5 mM MnCl2 for 10 min at 60 °C, the enzyme variants were purified as previously described [17]. The purity of the enzymes was evaluated by SDS–PAGE stained by Coomassie blue and immunodetection using an anti- rat arginase I antibody.
(§3) The single, double, triple, and chimera variants of human arginase type I were obtained by PCR, using the QuickChange site-directed mutagenesis kit (Stratagene, La Jolla, CA, USA); the plasmid pBluescript II KS(+) containing the human liver arginase cDNA was used as template. To obtain the chimeric species of human arginase type I, serial mutations were made in each loop to be modified, using as template DNA the wild-type arginase gene or the previous done mutation, subcloned in the plasmid pBluescript II KS (+).
(§4) All assays were initiated by adding the enzyme to a previously equilibrated buffer with the substrate in solution (the concentrations of used substrates were between 0.2–3 fold the Km). Urea was determined by a colorimetric method with α-isonitrosopropiophenone [38]. The protein concentrations were determined by the Bradford’s method, with bovine serum albumin as standard. Initial velocity and enzymatic inhibition experiments were performed in duplicate and repeated three times. […]

Substrate in data set [3]: N=C(N)NCCCCN
Description: Kinetic and inhibition studies, N130D-S137C mutant. In kind it is biochemical, human. As to conditions: other: substrate = labelled compound, pH 9.5, 2 mM Mn2+.
Description: as §2, §3, §4

Substrate in data set [4]: N=C(N)NCCCCN
The data set is described as follows: Kinetic and inhibition studies, N130D-N139D mutant. In kind it is biochemical, human. As to conditions: other: substrate = labelled compound, pH 9.5, 2 mM Mn2+.
Description: as §1

Substrate in data set [5]: N=C(N)NCCCCN
Description: Kinetic and inhibition studies, S137C mutant. Format: biochemical, human. As to conditions: other: substrate = labelled compound, pH 9.5, 2 mM Mn2+.
Description: as §2, §3, §4

Substrate in data set [6]: N=C(N)NCCCCN
Description: Kinetic and inhibition studies, N139D mutant. As to conditions: other: substrate = labelled compound, pH 9.5, 2 mM Mn2+. Format: biochemical, human.
Description: as §2, §3, §4

Substrate in data set [7]: N=C(N)NCCCCN
Description: Kinetic and inhibition studies, triple mutant. Format: biochemical, human. As to conditions: other: substrate = labelled compound, pH 9.5, 2 mM Mn2+.
Description: as §1

Substrate in data set [8]: N=C(N)NCCCCN
The data set is described as follows: Kinetic studies, E. coli agmatinase. In kind it is biochemical. As to conditions: other: substrate = labelled compound; n/a = no activity with the substrate; pH 9.5. How it is done:
All assays were initiated by adding the enzyme to a previously equilibrated buffer with the substrate in solution (the concentrations of used substrates were between 0.2–3 fold the Km). Urea was determined by a colorimetric method with α-isonitrosopropiophenone. The protein concentrations were determined by the Bradford’s method, with bovine serum albumin as standard. Initial velocity and enzymatic inhibition experiments were performed in duplicate and repeated three times. The inhibitory patterns were initially determined by double reciprocal plots and re-plots of intercepts and slopes versus inhibitor concentrations. […] Velocities are expressed as μmol of urea/10 min.

Substrate in data set [9]: N=C(N)NCCCCN
Description: Kinetic and inhibition studies, Chimera A2. In kind it is biochemical, human. As to conditions: other: substrate = labelled compound, pH 9.5, 2 mM Mn2+.
Description: as §2, §3, §4

B1: human arginase type I S137C-N139D (Homo sapiens; N139D/S137C) (protein)
chain: MSAKSRTIGIIGAPFSKGQPRGGVEEGPTVLRKAGLLEKLKEQECDVKDYGDLPFADIPNDSPFQIVKNPRSVGKASEQLAGKVAEVKKNGRISLVLGGDHSLAIGSISGHARVHPDLGVIWVDAHTDINTPLTTTCGDLHGQPVSFLLKELKGKIPDVPGFSWVTPCISAKDIVYIGLRDVDPGEHYILKTLGIKYFSMTEVDRLGIGKVMEETLSYLLGRKKRPIHLSFDVDGLDPSFTPATGTPVVGGLTYREGLYITEEIYKTGLLSGLDIMEVNPSLGKTPEEVTRTVNTAVAITLACFGLAREGNHKPIDYLNPPK
notes: made in house; host or cells: E. coli JM109
Turning to B1, in data set [1], the Km – broadly, the substrate concentration at which the rate is half of its maximum – was 900 µM; the kcat (commonly the number of substrate molecules converted per active site and unit of time at saturation) is 1.1 s⁻¹; the kcat/Km (usually the second-order rate constant that governs catalysis at low substrate concentration) came out at 1200 M⁻¹ s⁻¹.

B2: human arginase type I N130D (Homo sapiens; N130D) (protein)
chain: B1 chain with N130D, C137S, D139N
notes: as for B1
Take B2: in [2], the Michaelis-Menten constant (Km) was 1400 µM, the kcat was determined as 3 s⁻¹ and the kcat/Km was determined as 2100 M⁻¹ s⁻¹.

B3: human arginase type I N130D-S137C (Homo sapiens; N130D/S137C) (protein)
chain: B1 chain with N130D, D139N
notes: as for B1
On to B3, for which, in [3], the Km was found to be 1700 µM, the catalytic constant (kcat) worked out at 2.3 s⁻¹ and the kcat/Km came out at 1300 M⁻¹ s⁻¹.

B4: human arginase type I N130D-N139D (Homo sapiens; N130D/N139D) (protein)
chain: B1 chain with N130D, C137S
notes: as for B1
Turning to B4, in data set [4], the Km was 1100 µM, the kcat was 1.6 s⁻¹ and the kcat/Km is 1400 M⁻¹ s⁻¹.

B5: human arginase type I S137C (Homo sapiens; S137C) (protein)
chain: B1 chain with D139N
notes: as for B1
On to B5, for which, in data set [5], the Km turned out to be 7500 µM, the kcat was found to be 1.8 s⁻¹ and the kcat/Km was 240 M⁻¹ s⁻¹.

B6: human arginase type I N139D (Homo sapiens; N139D) (protein)
chain: B1 chain with C137S
notes: as for B1
As to B6, in data set [6], the Km was found to be 5300 µM, the kcat came out at 1.3 s⁻¹ and the kcat/Km was 250 M⁻¹ s⁻¹.

B7: human arginase type I N130D-S137C-N139D (Homo sapiens; N130D/N139D/S137C) (protein)
chain: B1 chain with N130D
notes: as for B1
Take B7: in data set [7], the Michaelis-Menten constant (Km) was found to be 1600 µM, the kcat turned out to be 0.9 s⁻¹ and the kcat/Km was determined as 560 M⁻¹ s⁻¹.

B8: E. coli agmatinase (Escherichia coli K-12) (protein)
chain: MSTLGHQYDNSLVSNAFGFLRLPMNFQPYDSDADWVITGVPFDMATSGRAGGRHGPAAIRQVSTNLAWEHNRFPWNFDMRERLNVVDCGDLVYAFGDAREMSEKLQAHAEKLLAAGKRMLSFGGDHFVTLPLLRAHAKHFGKMALVHFDAHTDTYANGCEFDHGTMFYTAPKEGLIDPNHSVQIGIRTEFDKDNGFTVLDACQVNDRSVDDVIAQVKQIVGDMPVYLTFDIDCLDPAFAPGTGTPVIGGLTSDRAIKLVRGLKDLNIVGMDVVEVAPAYDQSEITALAAATLALEMLYIQAAKKGE
Turning to B8, in data set [8], the Km was 1100 µM, the kcat is 120 s⁻¹ and the kcat/Km was 110000 M⁻¹ s⁻¹.

B9: Chimera A2 (I129T/N130Y/T131A+∆ P132-T134) of human arginase type I (Homo sapiens; DEL129-131/I129T/L133Y/N130Y/P132T/T134A) (protein)
chain: MSAKSRTIGIIGAPFSKGQPRGGVEEGPTVLRKAGLLEKLKEQECDVKDYGDLPFADIPNDSPFQIVKNPRSVGKASEQLAGKVAEVKKNGRISLVLGGDHSLAIGSISGHARVHPDLGVIWVDAHTDTYATTSGNLHGQPVSFLLKELKGKIPDVPGFSWVTPCISAKDIVYIGLRDVDPGEHYILKTLGIKYFSMTEVDRLGIGKVMEETLSYLLGRKKRPIHLSFDVDGLDPSFTPATGTPVVGGLTYREGLYITEEIYKTGLLSGLDIMEVNPSLGKTPEEVTRTVNTAVAITLACFGLAREGNHKPIDYLNPPK
notes: as for B1
For the protein B9, in data set [9], the Km worked out at 6000 ± 1000 µM, the kcat came out at 1.1 ± 0.2 s⁻¹ and the kcat/Km was 180 M⁻¹ s⁻¹.
